Source: patent publication US20030235863A1

Target: FPR-GFP fusion protein (human) (UniProt P21462)
Assay: flow cytometry, LRG assembly on DCNi G beads with 30 nM FPR-GFP

FPR-GFP fusion protein (human), sequence (P21462 other isoform, or with tags, fused parts or gaps): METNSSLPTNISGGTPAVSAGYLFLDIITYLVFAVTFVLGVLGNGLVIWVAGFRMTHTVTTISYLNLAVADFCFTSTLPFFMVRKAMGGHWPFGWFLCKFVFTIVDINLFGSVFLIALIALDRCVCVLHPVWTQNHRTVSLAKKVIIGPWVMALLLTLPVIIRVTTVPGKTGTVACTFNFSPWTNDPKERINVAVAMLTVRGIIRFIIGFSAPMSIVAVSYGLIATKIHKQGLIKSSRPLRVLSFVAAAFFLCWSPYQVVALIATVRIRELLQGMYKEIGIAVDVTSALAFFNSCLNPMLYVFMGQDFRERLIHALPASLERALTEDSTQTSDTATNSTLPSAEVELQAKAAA

fML (peptide)
EC50: 5.3 µM
